Assay results reported in patent publication US20240025993A1 (Novartis, published 2024).
Positions count from the first letter of the chain named. Names may count otherwise.

B1: Anti-CD3 human IgG1 antibody, wild type Fc (antibody)
heavy: not shown
light: QAVVTQEPSLTVSPGGTVTLTCRSSTGAVTTSNYANWVQQKPGQAPRGLIGGTNKRAPWTPARFSGSLLGDKAALTLSGAQPEDEAEYFCALWYSNLWVFGGGTKLTVLGQPKAAPSVTLFPPSSEELQANKATLVCLISDFYPGAVTVAWKADSSPVKAGVETTTPSKQSNNKYAASSYLSLTPEQWKSHRSYSCQVTHEGSTVEKTVAPTECS
notes: also called WT; WT IgG1
B2: Anti-CD3 human IgG1 antibody, DANAPA Fc variant (D265A/N297A/P329A) (antibody)
heavy: EVQLVESGGGLVQPGGSLKLSCAASGFTFNTYAMNWVRQASGKGLEWVGRIRSKYNNYATYYADSVKDRFTISRDDSKSTLYLQMNSLKTEDTAVYYCVRHGNFGNSYVSWFAYWGQGTLVTVSSASTKGPSVFPLAPSSKSTSGGTAALGCLVKDYFPEPVTVSWNSGALTSGVHTFPAVLQSSGLYSLSSVVTVPSSSLGTQTYICNVNHKPSNTKVDKRVEPKSCDKTHTCPPCPAPELLGGPSVFLFPPKPKDTLMISRTPEVTCVVVAVSHEDPEVKFNWYVDGVEVHNAKTKPREEQYASTYRVVSVLTVLHQDWLNGKEYKCKVSNKALAAPIEKTISKAKGQPREPQVYTLPPSRDELTKNQVSLTCLVKGFYPSDIAVEWESNGQPENNYKTTPPVLDSDGSFFLYSKLTVDKSRWQQGNVFSCSVMHEALHNHYTQKSLSLSPGK
light: B1 light
notes: Variant made by PCR mutagenesis of the anti-CD3 WT IgG1 heavy chain; also called DANAPA-IgG1; FCV-9
B3: Anti-CD3 human IgG1 antibody, DAPA Fc variant (D265A/P329A) (antibody)
heavy: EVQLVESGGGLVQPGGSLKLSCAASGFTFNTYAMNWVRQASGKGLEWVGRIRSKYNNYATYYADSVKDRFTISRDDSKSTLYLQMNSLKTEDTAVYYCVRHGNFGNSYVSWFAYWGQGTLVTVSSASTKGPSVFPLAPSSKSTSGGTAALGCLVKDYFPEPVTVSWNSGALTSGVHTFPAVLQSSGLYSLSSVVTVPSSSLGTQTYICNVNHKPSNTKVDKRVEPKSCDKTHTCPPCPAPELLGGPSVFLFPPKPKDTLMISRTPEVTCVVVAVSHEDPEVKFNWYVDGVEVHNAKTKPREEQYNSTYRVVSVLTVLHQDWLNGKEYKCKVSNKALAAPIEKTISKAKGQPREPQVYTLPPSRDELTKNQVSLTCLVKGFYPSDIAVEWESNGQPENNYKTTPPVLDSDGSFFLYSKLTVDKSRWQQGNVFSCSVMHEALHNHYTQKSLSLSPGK
light: B1 light
notes: also called DAPA-IgG1; FCV-8
B4: Anti-CD3 human IgG1 antibody, DAPASK Fc variant (D265A/P329A/S267K) (antibody)
heavy: B2 heavy with S275K, A305N
light: B1 light
notes: also called DAPASK-IgG1; FCV-5
B5: Anti-CD3 human IgG1 antibody, GADAPA Fc variant (G237A/D265A/P329A) (antibody)
heavy: B2 heavy with G245A, A305N
light: B1 light
notes: also called GADAPA-IgG1; FCV-6
B6: Anti-CD3 human IgG1 antibody, GADAPASK Fc variant (G237A/D265A/P329A/S267K) (antibody)
heavy: B2 heavy with G245A, S275K, A305N
light: B1 light
notes: also called FCV-7
B7: Anti-CD3 human IgG1 antibody, LALAGA Fc variant (L234A/L235A/G237A) (antibody)
heavy: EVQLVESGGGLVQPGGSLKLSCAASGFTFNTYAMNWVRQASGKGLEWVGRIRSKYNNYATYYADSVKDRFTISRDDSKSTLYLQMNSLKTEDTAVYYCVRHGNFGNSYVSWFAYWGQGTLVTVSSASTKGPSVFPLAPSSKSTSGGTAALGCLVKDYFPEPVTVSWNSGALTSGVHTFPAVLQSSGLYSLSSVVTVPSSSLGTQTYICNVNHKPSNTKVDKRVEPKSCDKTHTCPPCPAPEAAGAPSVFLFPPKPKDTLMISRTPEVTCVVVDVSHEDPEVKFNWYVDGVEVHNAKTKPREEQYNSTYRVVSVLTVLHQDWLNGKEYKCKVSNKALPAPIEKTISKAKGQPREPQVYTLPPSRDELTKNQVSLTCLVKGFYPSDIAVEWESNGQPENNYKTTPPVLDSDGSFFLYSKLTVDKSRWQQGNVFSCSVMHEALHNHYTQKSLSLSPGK
light: B1 light
notes: also called LALAGA-IgG1; FCV-2
B8: Anti-CD3 human IgG1 antibody, LALAPA Fc variant (L234A/L235A/P329A) (antibody)
heavy: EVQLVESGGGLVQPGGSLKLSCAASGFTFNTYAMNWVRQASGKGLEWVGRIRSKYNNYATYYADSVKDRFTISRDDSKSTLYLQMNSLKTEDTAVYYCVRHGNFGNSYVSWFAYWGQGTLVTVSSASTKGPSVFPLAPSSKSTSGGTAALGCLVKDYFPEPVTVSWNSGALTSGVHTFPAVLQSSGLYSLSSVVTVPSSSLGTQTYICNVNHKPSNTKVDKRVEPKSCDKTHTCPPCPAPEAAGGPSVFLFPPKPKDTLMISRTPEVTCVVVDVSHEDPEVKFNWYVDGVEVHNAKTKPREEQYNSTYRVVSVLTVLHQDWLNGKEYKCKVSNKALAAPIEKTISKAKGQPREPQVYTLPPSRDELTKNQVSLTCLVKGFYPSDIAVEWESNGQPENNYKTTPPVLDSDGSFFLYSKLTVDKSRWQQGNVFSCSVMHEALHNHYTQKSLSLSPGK
light: B1 light
notes: also called LALAPA-IgG1; FCV-1
B9: Anti-CD3 human IgG1 antibody, LALAPG Fc variant (L234A/L235A/P329G) (antibody)
heavy: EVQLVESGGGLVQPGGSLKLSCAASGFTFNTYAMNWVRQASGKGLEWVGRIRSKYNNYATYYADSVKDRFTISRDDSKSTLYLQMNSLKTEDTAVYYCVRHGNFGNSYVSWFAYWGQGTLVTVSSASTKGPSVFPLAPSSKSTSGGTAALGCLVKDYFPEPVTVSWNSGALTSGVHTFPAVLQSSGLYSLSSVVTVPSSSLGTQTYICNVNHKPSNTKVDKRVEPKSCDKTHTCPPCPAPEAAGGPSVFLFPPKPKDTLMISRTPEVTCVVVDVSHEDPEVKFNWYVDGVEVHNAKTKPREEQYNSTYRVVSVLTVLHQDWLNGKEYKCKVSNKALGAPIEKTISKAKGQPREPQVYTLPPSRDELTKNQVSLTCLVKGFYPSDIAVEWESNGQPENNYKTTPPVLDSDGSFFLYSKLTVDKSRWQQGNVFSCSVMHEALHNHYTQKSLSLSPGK
light: B1 light
notes: also called LALAPG-IgG1; FCV-3
B10: Anti-CD3 human IgG1 antibody, LALASKPA Fc variant (L234A/L235A/S267K/P329A) (antibody)
heavy: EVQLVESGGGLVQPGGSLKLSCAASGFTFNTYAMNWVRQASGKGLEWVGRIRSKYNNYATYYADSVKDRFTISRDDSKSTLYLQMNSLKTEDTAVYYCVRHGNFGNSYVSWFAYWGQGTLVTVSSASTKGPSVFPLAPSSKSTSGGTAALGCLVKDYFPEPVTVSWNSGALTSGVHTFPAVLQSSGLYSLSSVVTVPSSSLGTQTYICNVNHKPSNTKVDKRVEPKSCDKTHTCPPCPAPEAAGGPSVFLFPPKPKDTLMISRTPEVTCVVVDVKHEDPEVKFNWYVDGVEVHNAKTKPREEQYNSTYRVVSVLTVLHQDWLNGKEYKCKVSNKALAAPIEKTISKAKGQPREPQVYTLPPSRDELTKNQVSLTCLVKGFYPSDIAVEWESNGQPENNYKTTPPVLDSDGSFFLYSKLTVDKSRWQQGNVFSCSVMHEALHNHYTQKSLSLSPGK
light: B1 light
notes: also called FCV-4
B11: Anti-CD3 human IgG1 antibody, R214K allotype (antibody)
heavy: not shown
light: B1 light
notes: also called WT allotype; WT allotype R214K

Target: T1, human Fc gamma receptor 3A, V158 variant (human, UniProt P08637 17-208)
T1 construct: also called hFcgammaRIIIA V158; FcγR3A (V158)
T1 sequence (P08637 other isoform, or with tags, fused parts or gaps mutant): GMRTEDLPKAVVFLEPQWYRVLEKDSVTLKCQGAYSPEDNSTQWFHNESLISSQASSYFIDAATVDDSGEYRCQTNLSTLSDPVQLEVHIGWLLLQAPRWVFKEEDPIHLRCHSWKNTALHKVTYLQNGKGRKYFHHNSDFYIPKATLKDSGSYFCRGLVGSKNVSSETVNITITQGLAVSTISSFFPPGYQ
Assay: SPR (Biacore T200), antibody amine-coupled on CM5 chip, receptor as analyte
Procedure: (§1) Binding to human C1q was evaluated. All SPR buffers were prepared using deionized water. The samples were prepared in running buffer PBS pH 7.4 with 0.005% Tween-20. SPR measurements were measured on a Biacore T200 (GE-Healthcare Life Sciences) controlled by Biacore T200 control software version 2.0.1. Surface plasmon resonance was conducted using a Biacore T200 to assess binding affinity of antibody IgG1 WT and variants to human Fc receptors, including FcγR1A, and FcγR3A (V158) and human C1q.
(§2) The antibodies were covalently immobilized on a CM5 sensor chip whereas Fc gamma receptors or human C1q served as analytes in solution (FIG. 38). For Fc gamma receptors binding evaluation (method 1), antibodies were diluted in 10 mM sodium acetate pH 4 and immobilized at a density of approximately 950 resonance units (RU's) on the CM5 sensor chip applying a standard amine coupling procedure. Flow cell 1 was blank immobilized to serve as a reference. The kinetic binding data were collected by subsequent injections of 1:2 dilution series of the human Fc gamma receptors on all flow cells at a flow rate of 30 μl/min and at a temperature of 25° C. The Fc gamma receptors were diluted in the running buffer at concentrations ranging from 0.2 nM to 1000 nM (e.g. FcγR1A: 0.2 to 100 nM, FcγR3A V158: 1.95 to 1000 nM). The chip surface was regenerated using 20 mM glycine pH 2.0 solution after each measuring cycle. For human C1q binding evaluation (method 2), antibodies were diluted in 10 mM sodium acetate pH 4 and immobilized at a density of approximately 7000 resonance units (RU's) on the CM5 sensor chip applying a standard amine coupling procedure. Flow cell 1 was blank immobilized to serve as a reference. The kinetic binding data were collected by subsequent injections of 1:2 dilution series of the human C1q on all flow cells at a flow rate of 30 μl/min and at a temperature of 25° C. The human C1q was diluted in the running buffer at concentrations ranging from 0.49 nM to 250 nM. The chip surface was regenerated using 50 mM NaOH solution after each measuring cycle. Zero concentration samples (blank runs) were measured for both methods to allow double-referencing during data evaluation.
(§3) Data were evaluated using the Biacore T200 evaluation software.

Row | Binder | Maximum response at 1000 nM hFcgammaRIIIA V158 (RU)
1 | B1 | 79
2 | B2 | 31
3 | B3 | 15
4 | B4 | 15
5 | B5 | 9
6 | B6 | 12
7 | B7 | 25
8 | B8 | 19
9 | B9 | 33
10 | B10 | 20
11 | B11 | 72

Target: T2, human Fc gamma receptor 1A (human, UniProt P12314 16-288, limits assumed)
T2 construct: also called hFcgammaRIA; hFcγRIA
T2 sequence (P12314 16-288 limits assumed): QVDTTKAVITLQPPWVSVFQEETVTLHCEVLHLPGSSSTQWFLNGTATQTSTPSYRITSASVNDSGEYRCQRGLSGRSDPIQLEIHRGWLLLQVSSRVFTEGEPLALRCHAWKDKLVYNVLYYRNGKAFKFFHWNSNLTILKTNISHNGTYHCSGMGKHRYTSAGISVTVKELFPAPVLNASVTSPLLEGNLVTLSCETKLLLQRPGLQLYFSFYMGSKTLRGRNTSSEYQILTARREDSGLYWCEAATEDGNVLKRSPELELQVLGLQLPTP
Assay: as above
Procedure: as §1, §2, §3

Row | Binder | Maximum response at 100 nM hFcgammaRIA (RU)
12 | B1 | 193
13 | B3 | 63
14 | B8 | 26
15 | B11 | 193

Target: T3, human C1q (human, UniProt P02745 23-245; P02746 28-253; P02747 29-245)
T3 construct: also called hC1q
T3 sequence (P02745 23-245 limits assumed, chain 1 of 3): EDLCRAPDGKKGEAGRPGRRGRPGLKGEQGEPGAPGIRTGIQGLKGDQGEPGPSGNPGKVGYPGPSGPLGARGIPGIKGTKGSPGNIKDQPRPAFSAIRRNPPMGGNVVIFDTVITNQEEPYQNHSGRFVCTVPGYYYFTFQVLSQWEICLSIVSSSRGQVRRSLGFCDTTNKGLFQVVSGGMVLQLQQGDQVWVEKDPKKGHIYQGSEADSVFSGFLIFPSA
T3 sequence (P02746 28-253 limits assumed, chain 2 of 3): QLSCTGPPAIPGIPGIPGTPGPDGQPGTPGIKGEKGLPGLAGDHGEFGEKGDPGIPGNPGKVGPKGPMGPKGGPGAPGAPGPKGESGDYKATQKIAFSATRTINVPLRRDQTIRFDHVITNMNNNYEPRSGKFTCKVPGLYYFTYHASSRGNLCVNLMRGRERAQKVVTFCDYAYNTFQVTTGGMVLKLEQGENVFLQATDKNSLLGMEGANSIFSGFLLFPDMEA
T3 sequence (P02747 29-245 limits assumed, chain 3 of 3): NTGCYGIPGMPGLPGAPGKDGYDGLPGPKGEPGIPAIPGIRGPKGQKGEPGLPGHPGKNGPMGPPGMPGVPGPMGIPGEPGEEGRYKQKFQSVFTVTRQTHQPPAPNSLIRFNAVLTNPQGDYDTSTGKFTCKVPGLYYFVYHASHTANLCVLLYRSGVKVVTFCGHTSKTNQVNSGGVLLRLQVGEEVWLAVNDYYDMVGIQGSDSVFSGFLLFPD
Assay: SPR (Biacore T200), antibody amine-coupled on CM5 chip, C1q as analyte
Procedure: as §1, §2, §3

Row | Binder | Maximum response at 250 nM hC1q (RU)
16 | B1 | 680
17 | B2 | 29
18 | B3 | 85
19 | B4 | 86
20 | B5 | 203
21 | B6 | 168
22 | B7 | 335
23 | B8 | 270
24 | B9 | 245
25 | B10 | 95
26 | B11 | 640
